This is an account of results in patent US12077763B2, “RNA-based control of powdery mildew” (Greenlight Biosciences, Inc., priority 2021, dated 2024).

For this data set, the system named is E. necator. Kind of data set: Leaf disc assay, dry inoculum (settling tower), decrease in disease severity / hyphal growth (Example 2). The settings on record: decrease in disease severity (hyphal growth) relative to untreated control, value ± SE; for % decrease =/− SE TP1: time point 1 (untreated control hyphal growth ≥50%); for % decrease =/− SE TP2: time point 2.

B1: GS3673 (nucleic acid)
sense: AACUACUAACCUCGCCGCCCUAUAUAAGAAGAUGGGAACGCAAAAUCGUGUCAAUUUGAAAGAAAAGUUAAAAGGAAUGCGAAUCCAAAUCACACAUCUGCCCCCAAAGAUUAAUAAAACAACCGGAAAGGUUAUACCAAGGAUUAAAACCAUUCAAGGCCUUGCAAAUAUUAAUGAUGGUGCCAAAGAGGAGCAUCGACCAGAGGUUGCUGGAUAUGGUGCUGGUCCUCAAAAGGUCAAGUUUUGGGUAUCUGAAGAUACUGGCACUUCUAAAACCAGCCAAAAAAACCCCUUGCCAUCUAACACUUACAUCAGUGUAUAUGAUUACUUCAAAAAAAGAUACCCAAAGAUUGAAUUGGAUCCAAUAAAUCCUGUAGUUAAUGUUGGAAACAGUGAA
antisense: UUCACUGUUUCCAACAUUAACUACAGGAUUUAUUGGAUCCAAUUCAAUCUUUGGGUAUCUUUUUUUGAAGUAAUCAUAUACACUGAUGUAAGUGUUAGAUGGCAAGGGGUUUUUUUGGCUGGUUUUAGAAGUGCCAGUAUCUUCAGAUACCCAAAACUUGACCUUUUGAGGACCAGCACCAUAUCCAGCAACCUCUGGUCGAUGCUCCUCUUUGGCACCAUCAUUAAUAUUUGCAAGGCCUUGAAUGGUUUUAAUCCUUGGUAUAACCUUUCCGGUUGUUUUAUUAAUCUUUGGGGGCAGAUGUGUGAUUUGGAUUCGCAUUCCUUUUAACUUUUCUUUCAAAUUGACACGAUUUUGCGUUCCCAUCUUCUUAUAUAGGGCGGCGAGGUUAGUAGUU
Consider B1, for which the “% decrease =/− SE TP1” value is given as 34 ± 4% and the “% decrease =/− SE TP2” value worked out at 29 ± 6%.

B2: GS3672 (nucleic acid)
sense: UUCCUGGACAACCAGUAAAGAAAAAGUUGGGACCAAAUCAAACACAAGAAAUGAUAAAGUUUGCAUGUCGAACACCUGCCCAAAAUGCUACCUCAGUUGUUCAAGAUGGAAGACAUGUUUUGAGCCUGAACUCUAGCAACCCUGUUCUAUCUGAAUUUGGCCUUCAAGUAGGUCAGUCUUUGAUAUCAGUAAAUGCUCGAGUACUACAACCACCGUCUGUGAGAUAUGGAGGAUCUGGAAGUCUAUCACCGAGAAAUGGUAGUUGGAAUAUGAUUAACGUGAGAUUUCAUACACCCGCCAAAAUCGGACCAUGGACUUGUAUUAUGUUUCCCACCCAAGGAAGAAAUGACAUUGAUGUUGGUAAUAUGAGAUCACAUGUCACUGCUUUCCAAGCACA
antisense: UGUGCUUGGAAAGCAGUGACAUGUGAUCUCAUAUUACCAACAUCAAUGUCAUUUCUUCCUUGGGUGGGAAACAUAAUACAAGUCCAUGGUCCGAUUUUGGCGGGUGUAUGAAAUCUCACGUUAAUCAUAUUCCAACUACCAUUUCUCGGUGAUAGACUUCCAGAUCCUCCAUAUCUCACAGACGGUGGUUGUAGUACUCGAGCAUUUACUGAUAUCAAAGACUGACCUACUUGAAGGCCAAAUUCAGAUAGAACAGGGUUGCUAGAGUUCAGGCUCAAAACAUGUCUUCCAUCUUGAACAACUGAGGUAGCAUUUUGGGCAGGUGUUCGACAUGCAAACUUUAUCAUUUCUUGUGUUUGAUUUGGUCCCAACUUUUUCUUUACUGGUUGUCCAGGAA
B2: the “% decrease =/− SE TP1” value was found to be 34 ± 4% and the “% decrease =/− SE TP2” value is on record as 26 ± 7%.

B3: GS3916 (nucleic acid)
sense: UUACAAUCCAUGCACCAUCCAUUAAGCGAAAAUAAACCAUCACUGUUGAGAAAGAAGUUAAACGUGAUUUGAGCUGUUAUAAGAGUUGAGUUUAACACAGUAUUUUGAAUUUGUUCUAAUCCUGUACUUGCUAUUUUUGAAUCUUCGAGUGAUGGUGCAAGAUCAACGUUGAAGUGUAUGAUAGAAUCUGGUGCAGUUUCGGUACUUAAGUACAGAUAUGUUGCAAUGCCAAAACUAUCACUAGCACCACGCAUAGCAAAGAAAAUAUCGGGAUUUGUAUCAUCACUGGCGAAAAUUUCCUGUCCAUCAGCAAGAAUAACAUCCAUACCAACGAUGUGAUCA
antisense: UGAUCACAUCGUUGGUAUGGAUGUUAUUCUUGCUGAUGGACAGGAAAUUUUCGCCAGUGAUGAUACAAAUCCCGAUAUUUUCUUUGCUAUGCGUGGUGCUAGUGAUAGUUUUGGCAUUGCAACAUAUCUGUACUUAAGUACCGAAACUGCACCAGAUUCUAUCAUACACUUCAACGUUGAUCUUGCACCAUCACUCGAAGAUUCAAAAAUAGCAAGUACAGGAUUAGAACAAAUUCAAAAUACUGUGUUAAACUCAACUCUUAUAACAGCUCAAAUCACGUUUAACUUCUUUCUCAACAGUGAUGGUUUAUUUUCGCUUAAUGGAUGGUGCAUGGAUUGUAA
With B3, the “% decrease =/− SE TP1” value is recorded as 11 ± 9%.

B4: GS3920 (nucleic acid)
sense: UCAACGUAAAUUUUAUAAGCAAGGCUCUGGUAAAGUGGAACCUUACUUUUUAAUCCUCAACAAGGAAGGAGAGUUCAUUGAUGUAGUCGUUGAAGGGCUGAUGAAUAACUUCAUAAGAUGUCAACAAACAAGAAAAAUCUCUACAGAAUUAAUUUCAGAUGCACCUAAUCAACCGGUACCAUCUCAAAUAUCUGGAUAUCAAUGUGGUAAAUUUUUUUUUAGCAAUGAGGAACUUGAGAAUACUGCAAAUGUGGCUAGAGAUAUCAUGCUUCAGAGAAGUCAAAAUAAAAUUCCCACUAAGUAUAA
antisense: UUAUACUUAGUGGGAAUUUUAUUUUGACUUCUCUGAAGCAUGAUAUCUCUAGCCACAUUUGCAGUAUUCUCAAGUUCCUCAUUGCUAAAAAAAAAUUUACCACAUUGAUAUCCAGAUAUUUGAGAUGGUACCGGUUGAUUAGGUGCAUCUGAAAUUAAUUCUGUAGAGAUUUUUCUUGUUUGUUGACAUCUUAUGAAGUUAUUCAUCAGCCCUUCAACGACUACAUCAAUGAACUCUCCUUCCUUGUUGAGGAUUAAAAAGUAAGGUUCCACUUUACCAGAGCCUUGCUUAUAAAAUUUACGUUGA
On to B4, for which the “% decrease =/− SE TP1” value worked out at 14 ± 11% and the “% decrease =/− SE TP2” value is 12 ± 12%.

B5: GS3919 (nucleic acid)
sense: AUUGCGCCAAAAUGUGAGGUAAGGAUUACUAACUUGCUGAGCUUGAAGAACUCAUCAACACCAGUAUCUUUAGCUGGUAAACAAGUUAAGCAAAUUCAAAGCAACUUACCAUCGACAAGUAAACAACUUGGAAUAUUUGCAAAAGAAAACAUCUUACCGGGCGAAUCAAUCCUUAAAGAGCUGUCAUAUCUCACUGUUAAUAAUAGACUCAAAGGCCCUCUAUGUGAUGCUUGUAGUGCUGAAAUUCCUUCUCUAUAUGAAACUGAAAGUACAGCAAUGAGCUGUCUCGAGUGUGAUGAAAUCUCAUUCUGUAGUGAUGAAUGCAAACGUGGAGCUGAGCUCGAAUAUCAUCCAGCAGUAUGUGGUAAAGAUGUUGAGACAAUUGGCAAGGACUGG
antisense: CCAGUCCUUGCCAAUUGUCUCAACAUCUUUACCACAUACUGCUGGAUGAUAUUCGAGCUCAGCUCCACGUUUGCAUUCAUCACUACAGAAUGAGAUUUCAUCACACUCGAGACAGCUCAUUGCUGUACUUUCAGUUUCAUAUAGAGAAGGAAUUUCAGCACUACAAGCAUCACAUAGAGGGCCUUUGAGUCUAUUAUUAACAGUGAGAUAUGACAGCUCUUUAAGGAUUGAUUCGCCCGGUAAGAUGUUUUCUUUUGCAAAUAUUCCAAGUUGUUUACUUGUCGAUGGUAAGUUGCUUUGAAUUUGCUUAACUUGUUUACCAGCUAAAGAUACUGGUGUUGAUGAGUUCUUCAAGCUCAGCAAGUUAGUAAUCCUUACCUCACAUUUUGGCGCAAU
For the molecule B5, the “% decrease =/− SE TP1” value was 23 ± 8% and the “% decrease =/− SE TP2” value is given as 16 ± 9%.

B6: GS3917 (nucleic acid)
sense: CCAGGCUAAAUCUGUGCUCCAAACACAGUCAGUAAUACAGACUUUAAUUGCUGAGUGUUUAUCUUUGGGGAAAACAAAAAUGAUUAUUGAUCUCUCCUCGAAUAGUGGAGGUAAUUUGGUCGUUGGUUAUGACACAUUCCGACAAUUUUUCCCUACCAUUGAACAGCCAGGUUAUUCACGAUUUCGAUUACACGAGGCGCUAAAAAUUAUUACGAAACAGAUCUCGAAAAUCGCAUCGAAUUUCUCUUUUACAAGUACAAACCCCACUGAUUAUGAUUAUUACCAAACUCCGUUUAAUUAUAGAUUCGAUCUAAAUGAAACCAAUGAAAAAUUUCUUAGCUACGAGGAUAAAUUCAGUCCAAGAAAAUUUAAUGGUGAUGAAUUCACUAGCAAUAUGA
antisense: UCAUAUUGCUAGUGAAUUCAUCACCAUUAAAUUUUCUUGGACUGAAUUUAUCCUCGUAGCUAAGAAAUUUUUCAUUGGUUUCAUUUAGAUCGAAUCUAUAAUUAAACGGAGUUUGGUAAUAAUCAUAAUCAGUGGGGUUUGUACUUGUAAAAGAGAAAUUCGAUGCGAUUUUCGAGAUCUGUUUCGUAAUAAUUUUUAGCGCCUCGUGUAAUCGAAAUCGUGAAUAACCUGGCUGUUCAAUGGUAGGGAAAAAUUGUCGGAAUGUGUCAUAACCAACGACCAAAUUACCUCCACUAUUCGAGGAGAGAUCAAUAAUCAUUUUUGUUUUCCCCAAAGAUAAACACUCAGCAAUUAAAGUCUGUAUUACUGACUGUGUUUGGAGCACAGAUUUAGCCUGG
B6: the “% decrease =/− SE TP2” value is 29 ± 12%.

B7: GS1814: dsRNA trigger SEQ ID NO 161; gene target Importin subunit beta-3 (nucleic acid)
DNA: TTATTGGTGGTAGAATGTTCAAAACCTCTGATATAAGTTCATAGTATTTTTGCTTGGATTTTTTGTTGAGACTCCTGAAGAATGAAGCGAAAGCTTCCATAGCGGCCAGTCGGACTGTCACGTCATCATCCTTAAATCCCTTGGTAAAAGCAGAAAGAACAGTATCTTCATGCTGCTTTTCGATTATTCTAGGAGTTGTTGAGAAGATTCTATAGGCAATCTCACGTTGGCCCATCACTTGCGACATACTGAGTGTAAAGAGAACACCTAGAATTTCGGGCCATTGCAACTTATCATCGGAGTACTGCCTAGCGACTTCTGCGACTGCATCACCTATCTTATTTCTTGTAGACGTTTCGGTTTCAGAGCTAAGGGCTTCAAGAAGTTTTTGTCTGATAATATGTCCTTGTTCTGTCGGCAAAGAGATAAATGTTTCCACTGACTGATTATTTTGTAATTTTCGAGTCTTTGAAGCTATCCGTCTGAAGATGACTGCAGCAAAAGAGCGTTTCGCAGGATCGTTTGAGCCCTGAATTTGTTCCACCAGGCCAATCAAGAGCATCTCTGGTTTAAGCAACGTCCAATTATTCGTTAAAT
For the molecule B7, the “% decrease =/− SE TP1” value worked out at 8 ± 4%.

B8: GS3628 (nucleic acid)
sense: UAGUUUCAACUGCUCCAGCACCAAACUCACCUUGGCAUCUACGAAGCCGACAGGAAGGUGGUGGCUACUAUGGCCAACCAUCGAAUGGUGAUGGAAGUGUGUAUCCACCUUCAUCUGGUACAGGUGGCUUUCUAUCGCCAACUGCUACGAGCGGUUAUCCGUCUGCAACUGGAACUGGCGGCUAUUCAUCUCCAUCGGGCACCGGUGGCUACCCGUCUGCAACAGGUACAGGUGGUUACGCAUCGCCAA
antisense: UUGGCGAUGCGUAACCACCUGUACCUGUUGCAGACGGGUAGCCACCGGUGCCCGAUGGAGAUGAAUAGCCGCCAGUUCCAGUUGCAGACGGAUAACCGCUCGUAGCAGUUGGCGAUAGAAAGCCACCUGUACCAGAUGAAGGUGGAUACACACUUCCAUCACCAUUCGAUGGUUGGCCAUAGUAGCCACCACCUUCCUGUCGGCUUCGUAGAUGCCAAGGUGAGUUUGGUGCUGGAGCAGUUGAAACUA
Turning to B8, the “% decrease =/− SE TP1” value was determined as 12 ± 2% and the “% decrease =/− SE TP2” value amounted to 7 ± 5%.
